{
  "source": "paper doi:10.1101/2025.07.03.662971",
  "key": {"[1]": {"target": "6xHis-tagged GH1 or CT43 protein (ligand of the Ni-NTA BLI) (rat) (UniProt P97836)", "sequence (P97836 807-992)": "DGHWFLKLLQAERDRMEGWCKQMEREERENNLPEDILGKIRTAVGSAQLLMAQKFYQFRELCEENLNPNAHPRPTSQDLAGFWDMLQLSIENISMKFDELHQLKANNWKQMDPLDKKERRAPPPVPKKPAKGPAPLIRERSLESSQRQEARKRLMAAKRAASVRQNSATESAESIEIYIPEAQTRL", "assay": "BLI"}, "[2]": {"target": "GST-tagged 12 amino acid ARAP3 peptide (human)", "assay": "BLI"}, "[3]": {"target": "GST-tagged 12 amino acid ATG13 peptide (human)", "assay": "BLI"}, "[4]": {"target": "GST-tagged 12 amino acid mTOR peptide (human)", "assay": "BLI"}, "[5]": {"target": "GST-tagged 12 amino acid βPIX peptide (human)", "assay": "BLI"}, "[6]": {"target": "FITC labeled GKAP C-terminus peptide (CT12) (human)", "assay": "fluorescence polarisation"}},
  "note": "pKd: −log10 of the molar value.",
  "data": [
    {"substance": "wild type Shank1-PDZ domain (domain or fragment)", "values": [
      {"measurement": "pKd", "setting": "[1]", "value": 5.82},
      {"measurement": "pKd", "setting": "[2]", "value": 4.45},
      {"measurement": "pKd", "setting": "[3]", "value": 4.41},
      {"measurement": "pKd", "setting": "[4]", "value": 3.14},
      {"measurement": "pKd", "setting": "[5]", "value": 4.63},
      {"measurement": "pKd", "setting": "[6]", "value": 5.34}
    ]},
    {"substance": "Shank1-PDZ V677M variant (domain or fragment)", "values": [
      {"measurement": "pKd", "setting": "[6]", "value": 4.77}
    ]},
    {"substance": "Shank1-PDZ R736Q variant (domain or fragment)", "values": [
      {"measurement": "pKd", "setting": "[6]", "value": 5.59}
    ]},
    {"substance": "Shank1-PDZ G734S variant (domain or fragment)", "values": [
      {"measurement": "pKd", "setting": "[6]", "value": 4.97}
    ]},
    {"substance": "Shank1-PDZ R679W variant (domain or fragment)", "values": [
      {"measurement": "pKd", "setting": "[1]", "value": 4.84},
      {"measurement": "pKd", "setting": "[6]", "value": 3.49}
    ]},
    {"substance": "Shank1-PDZ R743H variant (domain or fragment)", "values": [
      {"measurement": "pKd", "setting": "[6]", "value": 5.12}
    ]}
  ]
}
